{"source": "patent US6677433B2", "about": "(The Regents of the University of California, priority 2001, dated 2004)", "target": "T1, trypsin (Bos taurus, UniProt P00760)", "T1 construct": "purchased Sigma Chemical Co. (St. Louis, Mo.) T8640", "T1 sequence (P00760 24-246)": "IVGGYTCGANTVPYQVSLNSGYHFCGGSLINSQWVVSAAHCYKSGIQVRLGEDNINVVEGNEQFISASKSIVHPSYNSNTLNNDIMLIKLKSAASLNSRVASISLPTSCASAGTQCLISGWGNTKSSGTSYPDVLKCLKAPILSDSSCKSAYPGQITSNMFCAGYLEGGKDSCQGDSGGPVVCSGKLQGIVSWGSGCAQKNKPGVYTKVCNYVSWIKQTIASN", "assay": "Heat stability of trypsin inhibitors (trypsin activity, azocasein)", "type": "biochemical", "method": "Unless indicated, the reduction of the trypsin inhibitors (0.4 mg/ml) was carried out in 0.1 ml of 20 mM sodium phosphate buffer, pH 7.9 containing 10 mM EDTA at 30° C. for 2 hours. The concentrations of thioredoxin, NTR, and NADPH were 0.024 mg/ml, 0.02 mg/ml, and 0.25 mM, respectively. […] Following reduction, aliquots of the inhibitor mixture were withdrawn either for determination of trypsin inhibitory activity or proteolytic susceptibility. In the subtilisin tests, the inhibitor mixture (50 μl) was directly mixed with subtilisin and incubated at room temperature for 1 hour. With the wheat protease preparation, the pH of the inhibitor mixture (50 μL) was first adjusted to 4.7 by mixing with 35 μl of 200 mM sodium acetate, pH 4.6; 10 μl of the wheat protease preparation was then added and incubation was continued for 2 hours at 37° C. To stop digestion with subtilisin, 2 μl of 100 mM phenylmethylsulfonyl fluoride (PMSF) and 10 μl of 10% SDS were added to the digestion mixture. With the plant protease preparation, digestion was stopped by adding an equal volume of SDS sample buffer [0.125 M Tris-HCl, pH 6.8, 4% (w/v) SDS, 20% (v/v) glycerol, 10% (v/v) β-mercaptoethanol, and 0.02% (w/v) bromophenol blue]. Proteolytic products were analyzed by electrophoresis with 12% or 16% SDS polyacrylamide slab gels (Laemmli, 1970). The dried slab gels were scanned with a laser densitometer (Pharmacia-LKB UltraScan XL) and the peak area of the KTI or BBTI protein band was obtained by integration with a Pharmacia GelScan XL software program.\nThioredoxin and NTR were assayed as previously described by Florencio et al. (1988). Trypsin activity was measured in 50 mM Tris-HCl, pH 7.9, by following the increase in absorbance at 253 nm with N-benzoyl-L-arginine ethyl ester as substrate (Mundy et al., 1984) or by the release of azo dye into the trichloroacetic acid (TCA)-soluble fraction from azocasein substrate (see below). For trypsin inhibition assays, trypsin (5 to 10 μg) was preincubated with appropriate amounts of KTI or BBTI for 5 minutes at room temperature in 50 mM Tris-HCl, pH 7.9 and proteolytic activity was then determined. While the two substrates yielded similar data, results are presented with only one substrate.\nThe question arises as to whether reduction by thioredoxin yields similar results. The results as shown in TABLE XII provide a positive answer to this question. When heated at 80° C. for 15 minutes, the thioredoxin-reduced form of KTI completely lost its ability to inhibit trypsin, whereas its oxidized counterpart retained about half of the original activity (Table XII). […] Nonetheless, as with KTI, the reduced form of BBTI was fully inactivated by heat (Table XII). […]"}
{"molecule": "Soybean Kunitz: Kunitz soybean trypsin inhibitor (protein, UniProt P01070 25-205, looked up) Trypsin inhibitor A: DFVLDNEGNPLENGGTYYILSDITAFGGIRAAPTGNERCPLTVVQSRNELDKGIGTIISSPYRIRFIAEGHPLSLKFDSFAVIMLCVGIPTEWSVVEDLPEGPAVKIGENKDAMDGWFRLERVSDDEFNNYKLVFCPQQAEDDKCGDIGISIDHDDGTRRLVVSKNKPLVVQFQKLDKESL", "values": [{"measurement": "Relative Trypsin Activity, inhibitor heated 15 min at 80° C., Oxidized", "result": 52.3}, {"measurement": "Relative Trypsin Activity, inhibitor heated 15 min at 80° C., Reduced", "result": 98.7}, {"measurement": "Relative Trypsin Activity, inhibitor unheated, Reduced", "result": 76.4}, {"measurement": "Relative Trypsin Activity, inhibitor unheated, Oxidized", "setting": "no inhibitor = 100, azocasein", "result": 26.6}]}
